The values that follow come from IntAct's records for PubMed 9025305.

The target in experiment [1] is rbp1a_arath RANBP1A (UniProt Q9LMK7).
For experiment [2], the target named is rbp1b_arath RANBP1B (UniProt Q8RWG8).
Sequence of rbp1b_arath RANBP1B (Q8RWG8 whole entry): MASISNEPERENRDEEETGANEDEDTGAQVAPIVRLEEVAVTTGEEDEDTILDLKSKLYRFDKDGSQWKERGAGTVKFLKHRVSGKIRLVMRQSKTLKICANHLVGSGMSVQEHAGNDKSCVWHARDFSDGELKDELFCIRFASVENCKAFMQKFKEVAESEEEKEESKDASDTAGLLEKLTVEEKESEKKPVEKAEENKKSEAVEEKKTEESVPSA

Sequence of GTP-binding nuclear protein Ran-1 (Arabidopsis thaliana (Mouse-ear cress)), P41916 T24D (P41916 whole entry T24D): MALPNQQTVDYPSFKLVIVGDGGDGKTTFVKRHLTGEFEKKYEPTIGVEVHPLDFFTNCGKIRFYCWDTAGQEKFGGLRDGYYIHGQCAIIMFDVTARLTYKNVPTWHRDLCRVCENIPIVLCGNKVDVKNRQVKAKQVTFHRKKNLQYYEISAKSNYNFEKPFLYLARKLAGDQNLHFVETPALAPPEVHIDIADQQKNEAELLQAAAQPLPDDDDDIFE
Sequence of rbp1a_arath RANBP1A (Q9LMK7 whole entry): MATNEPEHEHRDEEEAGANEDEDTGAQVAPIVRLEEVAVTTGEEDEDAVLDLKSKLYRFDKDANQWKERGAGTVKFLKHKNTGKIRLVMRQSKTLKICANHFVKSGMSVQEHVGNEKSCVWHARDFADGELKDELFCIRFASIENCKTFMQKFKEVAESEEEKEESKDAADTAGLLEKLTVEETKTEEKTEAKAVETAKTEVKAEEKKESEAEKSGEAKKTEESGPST

As to “GTP-binding nuclear protein Ran-1 (Arabidopsis thaliana (Mouse-ear cress)), P41916 T24D”, the “effect of a mutation on the interaction” value in experiment [1] and in experiment [2] was “disrupting interaction” throughout.
